{"source": "paper PMC5054401", "proteins": {"B1": {"name": "O-GlcNAc transferase (OGT): Mono-OGT S389A (protein)", "parent chain": "MASSVGNVADSTGLAELAHREYQAGDFEAAERHCMQLWRQEPDNTGVLLLLSSIHFQCRRLDRSAHFSTLAIKQNPLLAEAYSNLGNVYKERGQLQEAIEHYRHALRLKPDFIDGYINLAAALVAAGDMEGAVQAYVSALQYNPDLYCVRSDLGNLLKALGRLEEAKACYLKAIETQPNFAVAWSNLGCVFNAQGEIWLAIHHFEKAVTLDPNFLDAYINLGNVLKEARIFDRAVAAYLRALSLSPNHAVVHGNLACVYYEQGLIDLAIDTYRRAIELQPHFPDAYCNLANALKEKGSVAEAEDCYNTALRLCPTHADSLNNLANIKREQGNIEEAVRLYRKALEVFPEFAAAHSNLASVLQQQGKLQEALMHYKEAIRISPTFADAYSNMGNTLKEMQDVQGALQCYTRAIQINPAFADAHSNLASIHKDSGNIPEAIASYRTALKLKPDFPDAYCNLAHCLQIVCDWTDYDERMKKLVSIVADQLEKNRLPSVHPHHSMLYPLSHGFRKAIAERHGNLCLDKINVLHKPPYEHPKDLKLSDGRLRVGYVSSDFGNHPTSHLMQSIPGMHNPDKFEVFCYALSPDDGTNFRVKVMAEANHFIDLSQIPCNGKAADRIHQDGIHILVNMNGYTKGARNELFALRPAPIQAMWLGYPGTSGALFMDYIITDQETSPAEVAEQYSEKLAYMPHTFFIGDHANMFPHLKKKAVIDFKSNGHIYDNRIVLNGIDLKAFLDSLPDVKIVKMKCPDGGDNADSSNTALNMPVIPMNTIAEAVIEMINRGQIQITINGFSISNGLATTQINNKAATGEEVPRTIIVTTRSQYGLPEDAIVYCNFNQLYKIDPSTLQMWANILKRVPNSVLWLLRFPAVGEPNIQQYAQNMGLPQNRIIFSPVAPKEEHVRRGQLADVCLDTPLCNGHTTGMDVLWAGTPMVTMPGETLASRVAASQLTCLGCLELIAKNRQEYEDIAVKLGTDLEYLKKVRGKVWKQRISSPLFNTKQYTMELERLYLQMWEHYAAGNKPDHMIKPVEVTESA"}, "B2": {"name": "O-GlcNAc transferase (OGT): 5-thio-GlcNAc (protein)", "parent chain": "B1 parent chain"}, "B3": {"name": "O-GlcNAc transferase (OGT): OGT S389A (protein)", "parent chain": "B1 parent chain"}, "B4": {"name": "O-GlcNAc transferase (OGT): Thiamet-G (protein)", "parent chain": "B1 parent chain"}}, "key": {"[1]": {"test": "anti-Flag immunofluorescence, nucleus/cytoplasm densitometry", "conditions": "glycan lost"}, "[2]": {"test": "HeLa subcellular fractionation, anti-Flag western"}, "[3]": {"test": "OGT enzyme activity (Supplementary Fig. 5a,b)", "conditions": "glycan lost; control: WT-OGT"}}, "data": [{"protein": "B1", "values": [{"measurement": "localisation_or_trafficking", "setting": "[1]; control: Mono-OGT", "result": "decreases"}, {"measurement": "localisation_or_trafficking", "setting": "[2]; glycan lost, control: Mono-OGT", "result": "decreases"}]}, {"protein": "B2", "values": [{"measurement": "localisation_or_trafficking", "setting": "[1]; control: untreated cells", "result": "decreases"}, {"measurement": "localisation_or_trafficking", "setting": "[2]; glycan lost, control: untreated cells", "result": "decreases"}]}, {"protein": "B3", "values": [{"measurement": "enzymatic_activity", "setting": "[3]", "result": "no change"}]}, {"protein": "B4", "values": [{"measurement": "localisation_or_trafficking", "setting": "[2]; glycan gained, control: untreated cells", "result": "increases"}]}]}
